From the supplement of paper PMC5998384

Legend:
HeLa Kyoto [1] = assay: solubility change mitosis vs G1/S (difference of NP-40 vs SDS log2 ratios) (log2 ratio difference); higher = more soluble in mitosis
HeLa Kyoto [2] = assay: thermal stability score vs G1/S (z-score of summed log2 fold changes over temperatures); higher = more thermally stable than in G1/S
HeLa Kyoto [3] = assay: solubility in G1/S (NP-40 vs SDS abundance) (log2 ratio); higher = more soluble; conditions: cell cycle stage: G1/S
[4] = cell cycle stage: early G1 (4.5 h after nocodazole release)
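Throughout, for solubility change mitosis vs G1/S (difference of NP-40 vs SDS log2 ratios): synchronized HeLa Kyoto cells (double thymidine block for G1/S, nocodazole release for mitosis), protein amounts in NP-40 versus SDS lysates quantified by mass spectrometry, three biological replicates.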
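Throughout, for solubility in G1/S (NP-40 vs SDS abundance): HeLa Kyoto cells arrested at G1/S by double thymidine block, proteins quantified by TMT10plex mass spectrometry in mild NP-40 versus SDS extracts, three biological replicates.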
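Throughout, for thermal stability score vs G1/S (z-score of summed log2 fold changes over temperatures): synchronized HeLa Kyoto cells, proteins quantified by TMT10plex mass spectrometry, three biological replicates, mitosis taken 0.5 h after nocodazole release, G1/S directly after double thymidine block.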

| Substance | solubility change mitosis (log2) (HeLa Kyoto [1]) | thermal stability score (HeLa Kyoto [2]; [4]) | thermal stability score (HeLa Kyoto [2]; cell cycle stage: mitosis) | solubility in G1/S (log2) (HeLa Kyoto [3]) |
| --- | --- | --- | --- | --- |
| MPLVVFCGLPYSGKSRRAEELRVALAAEGRAVYVVDDAAVLGAEDPAVYGDSAREKALRGALRASVERRLSRHDVVILDSLNYIKGFRYELYCLARAARTPLCLVYCVRPGGPIAGPQVAGANENPGRNVSVSWRPRAEEDGRAQAAGSSVLRELHTADSVVNGSAQADVPKELEREESGAAESPALVTPDSEKSAKHGSGAFYSPELLEALTLRFEAPDSRNRWDRPLFTLVGLEEPLPLAGIRSALFENRAPPPHQSTQSQPLASGSFLHQLDQVTSQVLAGLMEAQKSAVPGDLLTLPGTTEHLRFTRPLTMAELSRLRRQFISYTKMHPNNENLPQLANMFLQYLSQSLH [KTI12] | -0.00671 | -1.22 | -1.26 | 0.526 |
| MPTNFTVVPVEAHADGGGDETAERTEAPGTPEGPEPERPSPGDGNPRENSPFLNNVEVEQESFFEGKNMALFEEEMDSNPMVSSLLNKLANYTNLSQGVVEHEEDEESRRREAKAPRMGTFIGVYLPCLQNILGVILFLRLTWIVGVAGVLESFLIVAMCCTCTMLTAISMSAIATNGVVPAGGSYYMISRSLGPEFGGAVGLCFYLGTTFAGAMYILGTIEIFLTYISPGAAIFQAEAAGGEAAAMLHNMRVYGTCTLVLMALVVFVGVKYVNKLALVFLACVVLSILAIYAGVIKSAFDPPDIPVCLLGNRTLSRRSFDACVKAYGIHNNSATSALWGLFCNGSQPSAACDEYFIQNNVTEIQGIPGAASGVFLENLWSTYAHAGAFVEKKGVPSVPVAEESRASALPYVLTDIAASFTLLVGIYFPSVTGIMAGSNRSGDLKDAQKSIPTGTILAIVTTSFIYLSCIVLFGACIEGVVLRDKFGEALQGNLVIGMLAWPSPWVIVIGSFFSTCGAGLQSLTGAPRLLQAIARDGIVPFLQVFGHGKANGEPTWALLLTVLICETGILIASLDSVAPILSMFFLMCYLFVNLACAVQTLLRTPNWRPRFKFYHWTLSFLGMSLCLALMFICSWYYALSAMLIAGCIYKYIEYRGAEKEWGDGIRGLSLNAARYALLRVEHGPPHTKNWRPQVLVMLNLDAEQAVKHPRLLSFTSQLKAGKGLTIVGSVLEGTYLDKHMEAQRAEENIRSLMSTEKTKGFCQLVVSSSLRDGMSHLIQSAGLGGLKHNTVLMAWPASWKQEDNPFSWKNFVDTVRDTTAAHQALLVAKNVDSFPQNQERFGGGHIDVWWIVHDGGMLMLLPFLLRQHKVWRKCRMRIFTVAQVDDNSIQMKKDLQMFLYHLRISAEVEVVEMVENDISAFTYERTLMMEQRSQMLKQMQLSKNEQEREAQLIHDRNTASHTAAAARTQAPPTPDKVQMTWTREKLIAEKYRSRDTSLSGFKDLFSMKPDQSNVRRMHTAVKLNGVVLNKSQDAQLVLLNMPGPPKNRQGDENYMEFLEVLTEGLNRVLLVRGGGREVITIYS [SLC12A7] | -0.0793 | 0.109 | 0.0218 | -0.103 |
| MPV17L2 | -0.154 | -0.139 | -0.811 | -0.0909 |
| MSQYTEKEPAAMDQESGKAVWPKPAGGYQTITGRRYGRRHAYVSFKPCMTRHERSLGRAGDDYEVLELDDVPKENSSGSSPLDQVDSSLPSEPIFEKSETEIPTCGSALNQTTESSQSFVAVHHSEEGRDTLGSSTNLHNHSEGEYIPGACSASSVQNGIALVHTDSYDPDGKHGEDNDHLQLSAEVVEGSRYQESLGNTVFELENREAEAYTGLSPPVPSFNCEVRDEFEELDSVPLVKSSAGDTEFVHQNSQEIQRSSQDEMVSTKQQNNTSQERQTEHSPEDAACGPGHICSEQNTNDREKNHGSSPEQVVRPKVRKLISSSQVDQETGFNRHEAKQRSVQRWREALEVEESGSDDLLIKCEEYDGEHDCMFLDPPYSRVITQRETENNQMTSESGATAGRQEVDNTFWNGCGDYYQLYDKDEDSSECSDGEWSASLPHRFSGTEKDQSSSDESWETLPGKDENEPELQSDSSGPEEENQELSLQEGEQTSLEEGEIPWLQYNEVNESSSDEGNEPANEFAQPAFMLDGNNNLEDDSSVSEDLDVDWSLFDGFADGLGVAEAISYVDPQFLTYMALEERLAQAMETALAHLESLAVDVEVANPPASKESIDGLPETLVLEDHTAIGQEQCCPICCSEYIKDDIATELPCHHFFHKPCVSIWLQKSGTCPVCRRHFPPAVIEASAAPSSEPDPDAPPSNDSIAEAP [PJA2] | 0.121 | -3.9 | -1.5 | -0.111 |
| MSSEMLPAFIETSNVDKKQGINEDQEESQKPRLGEGCEPISKRQMKKLIKQKQWEEQRELRKQKRKEKRKRKKLERQCQMEPNSDGHDRKRVRRDVVHSTLRLIIDCSFDHLMVLKDIKKLHKQIQRCYAENRRALHPVQFYLTSHGGQLKKNMDENDKGWVNWKDIHIKPEHYSELIKKEDLIYLTSDSPNILKELDESKAYVIGGLVDHNHHKGLTYKQASDYGINHAQLPLGNFVKMNSRKVLAVNHVFEIILEYLETRDWQEAFFTILPQRKGAVPTDKACESASHDNQSVRMEEGGSDSDSSEEEYSRNELDSPHEEKQDKENHTESTVNSLPH [TRMT10A] | -0.0488 | 0.883 | 0.552 | -0.0218 |
| MSSKQEIMSDQRFRRVAKDPRFWEMPEKDRKVKIDKRFRAMFHDKKFKLNYAVDKRGRPISHSTTEDLKRFYDLSDSDSNLSGEDSKALSQKKIKKKKTQTKKEIDSKNLVEKKKETKKANHKGSENKTDLDNSIGIKKMKTSCKFKIDSNISPKKDSKEFTQKNKKEKKNIVQHTTDSSLEEKQRTLDSGTSEIVKSPRIECSKTRREMQSVVQLIMTRDSDGYENSTDGEMCDKDALEEDSESVSEIGSDEESENEITSVGRASGDDDGSEDDEEEDEDEEEDEDEDSEDDDKSDSGPDLARGKGNIETSSEDEDDTADLFPEESGFEHAWRELDKDAPRADEITRRLAVCNMDWDRLKAKDLLALFNSFKPKGGVIFSVKIYPSEFGKERMKEEQVQGPVELLSIPEDAPEKDWTSREKLRDYQFKRLKYYYAVVDCDSPETASKIYEDCDGLEFESSCSFIDLRFIPDDITFDDEPKDVASEVNLTAYKPKYFTSAAMGTSTVEITWDETDHERITMLNRKFKKEELLDMDFQAYLASSSEDEEEIEEELQGDDGVNVEEDGKTKKSQKDDEEQIAKYRQLLQVIQEKEKKGKENDMEMEIKWVPGLKESAEEMVKNKLEGKDKLTPWEQFLEKKKEKKRLKRKQKALAEEASEEELPSDVDLNDPYFAEEVKQIGINKKSVKSAKDGTSPEEEIEIERQKAEMALLMMDEDEDSKKHFNYNKIVEHQNLSKKKKKQLMKKKELIEDDFEVNVNDARFQAMYTSHLFNLDPSDPNFKKTKAMEKILEEKARQRERKEQELTQAIKKKESEIEKESQRKSIDPALSMLIKSIKTKTEQFQARKKQKVK [ESF1] | 0.656 | 2.5 | 5.59 | -1.21 |
| MSTEGGGRRCQAQVSRRISFSASHRLYSKFLSDEENLKLFGKCNNPNGHGHNYKVVVTVHGEIDPATGMVMNLADLKKYMEEAIMQPLDHKNLDMDVPYFADVVSTTENVAVYIWDNLQKVLPVGVLYKVKVYETDNNIVVYKGE [PTS] | -0.182 | -0.38 | -1.87 | 0.154 |
